Results on six molecules are retold here after patent publication US10570379B2, “Polypeptides for carbon-carbon bond formation and uses thereof” (INVISTA North America S.à.r.l., priority 2015, dated 2020).

A short description of data set [1]: Screen for dual transferase/ketothiolase activity with acetyl-CoA and sodium acrylate, LC-MS detection. In kind it is biochemical. As to the method: (§1) Acetyl-CoA was used at a final concentration of 1.5 mM and 30 mM of the substrate being studied (e.g. carboxylic acid salts, such as sodium acrylate) or 1.5 mM of propionyl-CoA in 50 mM Hepes buffer (pH 7.5). The reaction was started by addition of 0.5 mg/mL of YdiF pure protein or mutants to a final volume of 250 μL and incubated for 1 to 10 hours at 30° C.
Two controls were made from similar mixture except that the enzymes were inactivated by heating-up at 95° C. for 20 min or they were replaced by Buffer C.
(§2) All samples were prepared in triplicate and spun down at 15000 g for 20 min at 4° C. Detection of the thiol product (e.g. acryloyl-CoA) synthesized from CoA-transferase activity and the keto-thiol product (e.g. 3-oxopent-4-enoyl-CoA) due to putative thiolase activity of YdiF (or homologues) was carried out by Liquid Chromatography coupled to a qTof-Mass spectrometry (in positive mode), using a C18 column (Zorbax Eclipse C18, 2.1×50 mm, 1.8μ, Agilent, code product: 959757-902) and a gradient of 10 mM ammonium acetate and acetonitrile as mobile phase.
YdiF from Clostridium propionicum belongs to the enzymatic class EC2.8.3.8. Other members of this enzyme class with similar structural features to YdiF, as well as proteins with a CoA-transferase activity from close-by enzymatic classes, were screened for dual transferase/ketothiolase activity as described in Example 2. Acetyl-CoA and sodium acrylate were provided as substrates. LC-MS was used to detect the thiol-product (propenoyl-CoA) synthesized via the transferase activity and the ketothiol-product (3-oxopent-4-enoyl-CoA) synthesized via the thiolase activity, as described in Example 2.

Data set [2] can be described thus: Activity of YdiF mutant enzymes (evaluation of potential active sites). The conditions noted are these: studied as in Example 2. In kind it is biochemical. The procedure:
YdiF mutants were prepared using the relevant primers to introduce the mutated bases via the Quick change lightning kit (Agilent, code product: 210518-5), and cloned into E. coli. In addition, all the proteins used in this experiment have the following extra amino acids added in the N-terminal extremity of the original protein sequence (SEQ ID NO:1): […]. Those additional amino acids correspond to: two amino acids (M and G), a 6×His-tag followed by a 3 amino acids linker (SSG), and a specific proteolytic cleavage site (thrombin site, underlined) (SEQ ID NO: 22). All the sequences were confirmed by DNA sequencing.
as §1, §2
Mutations were introduced as described in Example 1 at the following positions previously found to be potentially involved in the active site of other β-ketothiolases: C258A, S60A, C112A, S38A, C390A. Activity of the mutant enzymes was studied as described in Example 2.
Mutations were introduced as described in Example 1 to replace the glutamate in position 324 of YdiF (see Selmer et al., 2002) with glycine (mutant E324G) or leucine (E324L). Activity of the mutant enzymes was studied as described in Example 2.

Data set [3] can be described thus: Solubility of the expressed protein (Table 3). As to conditions: protein expressed in E. coli.
Experimental: From a fresh LB plate containing the desired clone transformant, one colony (or small scratch) was picked to inoculate 25 mL of LB supplemented with the relevant antibiotic and the pre-culture was incubated overnight at 37° C., 230 rpm. The following morning, the TB auto-induced medium (Merck/Code product: 71491-5) was prepared by mixing 60 g TB/L supplemented with 10 mL Glycerol/L of TB and microwaved during 3+2 minutes at full power. The TB was cooled down before use and splitting it in sterile flasks. Then, the pre-culture incubated overnight in LB was centrifuged and the supernatant discarded. The obtained pellet was resuspended with 5 mL of freshly prepared TB medium and used to inoculate 500 mL of TB dispensed in sterile flasks and supplemented with the appropriate antibiotic. The inoculated medium was incubated at 28° C. for at least 20 h, 230 rpm.
The culture was centrifuged at least at 3000 g/20 min/4° C. and the pellet used immediately or stored at −80′C.
The pellets (fresh or thawed) were resuspended in 10 to 20 mL of Buffer A (50 mM Hepes+150 mM NaCl+40 mM Imidazole+5% Glycerol−pH 7.5). The resuspended cells were then sonicated in ice for, 5 min at 37% Amplitude with 5″ ON and 15″ OFF sonication pulse. The sonicated cells were centrifuged for at least 20 min at 15500 g and 4° C. The supernatant containing the soluble fraction of proteins was recovered, filtered using 0.45 or 0.2 um filters, and used for His-trap protein purification.

B1: Bdigene 271: Acetate CoA-transferase YdiF from Salmonella enterica subsp. houtenaeserovar, Uniprot V1HBS2, SEQ ID NO: 9 (protein, listed as Salmonella enterica)
chain: MLSTKQFTAQQAVELIQDGDKVILGGFIGAVVPEAIEKAIEDKFLAEGHPCNLGLIFAAGQGDAKEKAINRLAHEGLVSSAIGGHWGLIPGLQRLASEGKITGYNLPQGVICHLLRDSAAGKAGTLTHVGLGTFVDPRIEGGKINAKTTEDIVTYININDVENLLYKKLDANIAILRGTTADTHGNITMEDECLILENLAAAQLVHNQGGKVIVQVKRIVPKGSLDPLQVKIPGIFVDALVVADGEAHMQTFAEAMNENYVGRGEKGIRERKIRPLDVKKVIARRAAMELKKNAIVNYGIGIPEIIAQVADEENVTQELIATVEPGAIGGSPAGGLSFGASAFPEAIITQDQMFDFYDGGGLDQAFLGLAETDAKGDLNVSKFGVKIAGCGGFINITQNAKHVFFCGSFTAGDSDIIVEEGKLIIRRDGQIKKFIKHVQQITFSSDTARKNHKPVLYITERAVFRLAAETIELIEIAPGIDLQHDILDKMEFRPTISPALKEMDKRIFSEALMSLSLK
On to B1, for which, in data set [1] (3-oxopent-4-enoyl-CoA via thiolase activity), the ketothiol-product entry is “✓”. In data set [1] (propenoyl-CoA via transferase activity), the thiol-product entry is “✓”.

B2: E324L: YdiF mutant, leucine for the glutamate in position 324, SEQ ID NO: 4 (protein)
chain: MGHHHHHHSSGLVPRGSMRKVPIITADEAAKLIKDGDTVTTSGFVGNAIPEALDRAVEKRFLETGEPKNITYVYCGSQGNRDGRGAEHFAHEGLLKRYIAGHWATVPALGKMAMENKMEAYNVSQGALCHLFRDIASHKPGVFTKVGIGTFIDPRNGGGKVNDITKEDIVELVEIKGQEYLFYPAFPIHVALIRGTYADESGNITFEKEVAPLEGTSVCQAVKNSGGIVVVQVERVVKAGTLDPRHVKVPGIYVDYVVVADPEDHQQSLDCEYDPALSGEHRRPEVVGEPLPLSAKKVIGRRGAIELEKDVAVNLGVGAPEYVASVADEEGIVDFMTLTALSGAIGGVPAGGVRFGASYNADALIDQGYQFDYYDGGGLDLCYLGLAECDEKGNINVSRFGPRIAGCGGFINITQNTPKVFFCGTFTAGGLKVKIEDGKVIIVQEGKQKKFLKAVEQITFNGDVALANKQQVTYITERCVFLLKEDGLHLSEIAPGIDLQTQILDVMDFAPIIDRDANGQIKLMDAALFAEGLMGLKEMKS
Regarding B2, in data set [2], the transferase activity result was “only partially abolished”.

B3: S60A: YdiF (SEQ ID NO: 1) mutant, alanine for serine at position 60, N-terminal His-tag (protein, listed as Clostridium propionicum)
chain: MRKVPIITADEAAKLIKDGDTVTTSGFVGNAIPEALDRAVEKRFLETGEPKNITYVYCGAQGNRDGRGAEHFAHEGLLKRYIAGHWATVPALGKMAMENKMEAYNVSQGALCHLFRDIASHKPGVFTKVGIGTFIDPRNGGGKVNDITKEDIVELVEIKGQEYLFYPAFPIHVALIRGTYADESGNITFEKEVAPLEGTSVCQAVKNSGGIVVVQVERVVKAGTLDPRHVKVPGIYVDYVVVADPEDHQQSLDCEYDPALSGEHRRPEVVGEPLPLSAKKVIGRRGAIELEKDVAVNLGVGAPEYVASVADEEGIVDFMTLTAESGAIGGVPAGGVRFGASYNADALIDQGYQFDYYDGGGLDLCYLGLAECDEKGNINVSRFGPRIAGCGGFINITQNTPKVFFCGTFTAGGLKVKIEDGKVIIVQEGKQKKFLKAVEQITFNGDVALANKQQVTYITERCVFLLKEDGLHLSEIAPGIDLQTQILDVMDFAPIIDRDANGQIKLMDAALFAEGLMGLKEMKS
modifications: N-terminal His-tag
As to B3, in data set [2], the thiolase activity result is “None of the mutations abolished” and the transferase activity entry is “None of the mutations abolished”.

B4: C390A: YdiF (SEQ ID NO: 1) mutant, alanine for cysteine at position 390, N-terminal His-tag (protein, listed as Clostridium propionicum)
chain: MRKVPIITADEAAKLIKDGDTVTTSGFVGNAIPEALDRAVEKRFLETGEPKNITYVYCGSQGNRDGRGAEHFAHEGLLKRYIAGHWATVPALGKMAMENKMEAYNVSQGALCHLFRDIASHKPGVFTKVGIGTFIDPRNGGGKVNDITKEDIVELVEIKGQEYLFYPAFPIHVALIRGTYADESGNITFEKEVAPLEGTSVCQAVKNSGGIVVVQVERVVKAGTLDPRHVKVPGIYVDYVVVADPEDHQQSLDCEYDPALSGEHRRPEVVGEPLPLSAKKVIGRRGAIELEKDVAVNLGVGAPEYVASVADEEGIVDFMTLTAESGAIGGVPAGGVRFGASYNADALIDQGYQFDYYDGGGLDLCYLGLAECDEKGNINVSRFGPRIAGAGGFINITQNTPKVFFCGTFTAGGLKVKIEDGKVIIVQEGKQKKFLKAVEQITFNGDVALANKQQVTYITERCVFLLKEDGLHLSEIAPGIDLQTQILDVMDFAPIIDRDANGQIKLMDAALFAEGLMGLKEMKS
modifications: N-terminal His-tag
As to B4, in data set [2], the thiolase activity result is recorded as “None of the mutations abolished” and the transferase activity result is given as “None of the mutations abolished”.

B5: C112A: YdiF (SEQ ID NO: 1) mutant, alanine for cysteine at position 112, N-terminal His-tag (protein, listed as Clostridium propionicum)
chain: MRKVPIITADEAAKLIKDGDTVTTSGFVGNAIPEALDRAVEKRFLETGEPKNITYVYCGSQGNRDGRGAEHFAHEGLLKRYIAGHWATVPALGKMAMENKMEAYNVSQGALAHLFRDIASHKPGVFTKVGIGTFIDPRNGGGKVNDITKEDIVELVEIKGQEYLFYPAFPIHVALIRGTYADESGNITFEKEVAPLEGTSVCQAVKNSGGIVVVQVERVVKAGTLDPRHVKVPGIYVDYVVVADPEDHQQSLDCEYDPALSGEHRRPEVVGEPLPLSAKKVIGRRGAIELEKDVAVNLGVGAPEYVASVADEEGIVDFMTLTAESGAIGGVPAGGVRFGASYNADALIDQGYQFDYYDGGGLDLCYLGLAECDEKGNINVSRFGPRIAGCGGFINITQNTPKVFFCGTFTAGGLKVKIEDGKVIIVQEGKQKKFLKAVEQITFNGDVALANKQQVTYITERCVFLLKEDGLHLSEIAPGIDLQTQILDVMDFAPIIDRDANGQIKLMDAALFAEGLMGLKEMKS
modifications: N-terminal His-tag
With B5, in data set [2], the thiolase activity result is reported as “None of the mutations abolished” and the transferase activity entry is recorded as “None of the mutations abolished”.

B6: Bdigene 275: Acetyl-CoA acetyltransferase from Dyadobacter fermentans, Uniprot C6VTZ3, SEQ ID NO: 8 (protein)
chain: MNAYIVAGYRTAVGKAPRGGFRFTRPDDLGAAVIKHLLEKTPQLDPTRVDDVIVGNAVPEAEQGMQMGRYVALLSLPKNVSGITINRYCGSGVEAIAMASAKIHAGMAECIIAGGTESMSLVPTMGWKTALNYEIAHTNPDYYLSMGLTAEQVAQDFKISREAQDNFSFQSHQKALRAQKEGWFAEGIVPVTVKETYFDQASGKKKTKETVISQDEGPRADTTLEALNKLKPVFAAGGSVTAGNSSQTSDGAAFVLVMSERLVNELGLKPIARMMSYATAGVDPRVMGIGPVAAVPLALKQAGLQLKDIQQVELNEAFAAQSLAVIQELGIDPEIVNPNGGAIALGHALGSTGARLSVQLFNEMKRRDQKYGMVTACVGGGQGVAGIYERLN
modifications: Dyadobacter fermentans
In the case of B6, in data set [3], the Solubility result is “✓”.
